One assay addresses T1, Mcl-1 (Homo sapiens, UniProt Q07820).
T1 construct: myc-Mcl-1 SPOT array & FP; made in house
The assay can be described thus: LUMIER full-length protein interaction. The class given is binding. As to conditions: LUMIER results for Mcl-1, Z-score relative to Gaussian fit of the data. The protocol:
(§1) The LUMIER assay was carried out as previously described with the following modifications. A stable cell line expressing receptor tagged on the N-terminus with Nanoluc luciferase was created (the prey). […] Each bait construct was transfected into the receptor-luciferase cells in a 96-well format and after 48 hours the cells were lysed and transferred to 384-well plates coated with anti-FLAG. After incubation and washing, luminescence was measured to quantify how much receptor-luciferase was captured by the bait protein. Anti-Flag ELISA signal was used to exclude bait proteins that were not expressed. The experiment was carried out two times, each in duplicate.

For the next assay, the target named is T2, Bcl-xL (Homo sapiens, UniProt Q07817).
T2 construct: myc-Bcl-xL SPOT array & FP; made in house
Description: LUMIER full-length protein interaction. Type of assay: binding. As to conditions: LUMIER results for Bcl-xL, Z-score of the interaction relative to the Gaussian fit of the data. The protocol:
as §1

T2 sequence (Q07817 with tags, fused parts or gaps): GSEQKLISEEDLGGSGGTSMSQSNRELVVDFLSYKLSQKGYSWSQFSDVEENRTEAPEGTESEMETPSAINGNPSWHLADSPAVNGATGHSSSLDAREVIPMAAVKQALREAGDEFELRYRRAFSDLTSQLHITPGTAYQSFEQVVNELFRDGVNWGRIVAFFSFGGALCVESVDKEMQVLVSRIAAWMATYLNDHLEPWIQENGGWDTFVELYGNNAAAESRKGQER
T1 sequence (Q07820 with tags, fused parts or gaps): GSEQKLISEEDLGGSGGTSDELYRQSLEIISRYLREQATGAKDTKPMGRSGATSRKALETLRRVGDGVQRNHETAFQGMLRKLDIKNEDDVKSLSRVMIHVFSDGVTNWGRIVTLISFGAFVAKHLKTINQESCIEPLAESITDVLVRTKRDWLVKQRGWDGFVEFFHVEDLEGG

B1: MTA2 (protein, UniProt O94776 1-668, looked up)
Metastasis-associated protein …: MAANMYRVGDYVYFENSSSNPYLVRRIEELNKTANGNVEAKVVCLFRRRDISSSLNSLADSNAREFEEESKQPGVSEQQRHQLKHRELFLSRQFESLPATHIRGKCSVTLLNETDILSQYLEKEDCFFYSLVFDPVQKTLLADQGEIRVGCKYQAEIPDRLVEGESDNRNQQKMEMKVWDPDNPLTDRQIDQFLVVARAVGTFARALDCSSSIRQPSLHMSAAAASRDITLFHAMDTLQRNGYDLAKAMSTLVPQGGPVLCRDEMEEWSASEAMLFEEALEKYGKDFNDIRQDFLPWKSLASIVQFYYMWKTTDRYIQQKRLKAAEADSKLKQVYIPTYTKPNPNQIISVGSKPGMNGAGFQKGLTCESCHTTQSAQWYAWGPPNMQCRLCASCWIYWKKYGGLKTPTQLEGATRGTTEPHSRGHLSRPEAQSLSPYTTSANRAKLLAKNRQTFLLQTTKLTRLARRMCRDLLQPRRAARRPYAPINANAIKAECSIRLPKAAKTPLKIHPLVRLPLATIVKDLVAQAPLKPKTPRGTKTPINRNQLSQNRGLGGIMVKRAYETMAGAGVPFSANGRPLASGIRSSSQPAAKRQKLNPADAPNPVVFVATKDTRALRKALTHLEMRRAARRPNLPLKVKPTLIAVRPPVPLPAPSHPASTNEPIVLED
As to B1, the “z-score 1.2” value in the assay with Mcl-1 (experiment 1, duplicate 2) is recorded as 0.31; with Bcl-xL (experiment 1, duplicate 2), 0.8005. Moreover, the “z-score 2.1” value with Mcl-1 (experiment 2, duplicate 1) is given as 0.117; with Bcl-xL (experiment 2, duplicate 1) it was -0.1835. Also, the “z-score 2.2” value in the assay with Mcl-1 (experiment 2, duplicate 2) stood at 0.04852; with Bcl-xL (experiment 2, duplicate 2), 0.205. Further, the “z-score 1.1” value with Bcl-xL (experiment 1, duplicate 1) turned out to be 11.5243.

The values above are taken from publication PMC4072508, “Genome-Wide Prediction and Validation of Peptides That Bind Human Prosurvival Bcl-2 Proteins” (PLoS Computational Biology, 2014).
